According to the RNAGym collection of RNA variant scans (doi:10.7554/elife.80360):

B1: HDV Ribozyme (parent)
chain: GGCCGGCAUGGUCCCAGCCUCCUCGCUGGCGCCGGCUGGGCAACAUUCCGAGGGGACCGUCCCCUCGGUAAUGGCGAAUGGGACCCA

Variants of: B1
Experiment: self-cleavage, relative activity (ratio to wild type); higher = more cleavage; co-transcriptional

Variant | self-cleavage
GGCCGGCAUGGUCCCAGCCUCCUCGCUAGCGCCGGCUGGGCAACAUUCCGAGGGGACCGUCCCCUCGGUAAUGGCGAAUGGGACACA [G28A C85A] | 0.0369
GGCCGGCAUGGUCCCAGCCUCCUCGCUAGCGCCGGCUGGGCAACAUUCAGAGGGGACCGUCCCCUCGGUAAUGGCGAAUGGGACCCA [G28A C49A] | 0.111
GGCCGGCAUGGUCCCAGCCUCCUCGCUAGCGCCGGCUGGGCAACAUUCUGAGGGGACCGUCCCCUCGGUAAUGGCGAAUGGGACCCA [G28A C49U] | 0.0683
GGCCGGCAUGGUCCCAGCCUCCUCGCUAGCGCCGGCUGGGCAACAUUCCGAGGGGACCGUCCGCUCGGUAAUGGCGAAUGGGACCCA [G28A C63G] | 0.148
GGCCGGCAUGGUCCCAGCCUCCUCGCUAGCGCCGGCUGGGCAACAUUCCGAGGGGACCGUCCACUCGGUAAUGGCGAAUGGGACCCA [G28A C63A] | 0.128
GGCCGGCAUGGUCCCAGCCUCCUCGCUAGCGCCGGCUGGGCAACAUUCCGAGGGGACAGUCCCCUCGGUAAUGGCGAAUGGGACCCA [G28A C58A] | 0.0639
GGCCGGCAUGGUCCCAGCCUCCUCGCUAGCGCCGGCUGGGCAACAUUCCGAGGGGACUGUCCCCUCGGUAAUGGCGAAUGGGACCCA [G28A C58U] | 0.0228
GGCCGGCAUGGUCCCAGCCUCCUCGCUAGCGCCGGCUGGGCAACAUUCCGAGGGGACCGUCGCCUCGGUAAUGGCGAAUGGGACCCA [G28A C62G] | 0.111
GGCCGGCAUGGUCCCAGCCUCCUCGCUAGCGCCGGCUGGGCAACAUUCCGAGGGGACCGUCACCUCGGUAAUGGCGAAUGGGACCCA [G28A C62A] | 0.0297
GGCCGGCAUGGUCCCAGCCUCCUCGCUAGCGCCGGCUGGGCAACAUUCCGAGGGGACCGUCCCCUUGGUAAUGGCGAAUGGGACCCA [G28A C66U] | 0.138
GGCCGGCAUGGUCCCAGCCUCCUCGCUAGCGCCGGCUGGGCAACAUUCCGAGGGGACCGUCCCCUCGGUACUGGCGAAUGGGACCCA [G28A A71C] | 0.162
GGCCGGCAUGGUCCCAGCCUCCUCGCUAGCGCCGGCUGGGCAACAUUCCGAGGGGACCGUCCCCUCGGUAUUGGCGAAUGGGACCCA [G28A A71U] | 0.0292
GGCCGGCAUGGUCCCAGCCUCCUCGCUAGCGCCGGCUGGGCAACAUUCCGAGGGGACCGUCCCCUCGGUAAUGGCGUAUGGGACCCA [G28A A77U] | 0.104
GGCCGGCAUGGUCCCAGCCUCCUCGCUAGCGCCGGCUGGGCAACAUUCCGAGGGGACCGUCCCCUCGGUAAUGGCGAAUGGGAGCCA [G28A C84G] | 0.0378
GGCCGGCAUGGUCCCAGCCUCCUCGCUAGCGCCGGCUGGGCAACAUUCCGAGGGGACCGUCCCGUCGGUAAUGGCGAAUGGGACCCA [G28A C64G] | 0.108
GGCCGGCAUGGUCCCAGCCUCCUCGCUAGCGCCGGCUGGGCAACAUUCCGAGGGGACCGUCCCAUCGGUAAUGGCGAAUGGGACCCA [G28A C64A] | 0.121

Variant | self-cleavage
GGCCGGCAUGGUCCCAGCCUCCUCGCUAGCGCCGGCUGGGCAACAUUCCGAGGGGACCGUCCCUUCGGUAAUGGCGAAUGGGACCCA [G28A C64U] | 0.117
GGCCGGCAUGGUCCCAGCCUCCUCGCUAGCGCCGGCUGGGCAACAUUCCGAGGGGAUCGUCCCCUCGGUAAUGGCGAAUGGGACCCA [G28A C57U] | 0.163
GGCCGGCAUGGUCCCAGCCUCCUCGCUAGCGCCGGCUGGGCAACAUUCCGAGGGGAGCGUCCCCUCGGUAAUGGCGAAUGGGACCCA [G28A C57G] | 0
GGCCGGCAUGGUCCCAGCCUCCUCGCUAGCGCCGGCUGGGCAACAUUCCGAGGGGAACGUCCCCUCGGUAAUGGCGAAUGGGACCCA [G28A C57A] | 0.0978
GGCCGGCAUGGUCCCAGCCUCCUCGCUAGCGACGGCUGGGCAACAUUCCGAGGGGACCGUCCCCUCGGUAAUGGCGAAUGGGACCCA [G28A C32A] | 0.234
GGCCGGCAUGGUCCCAGCCUCCUCGCUAGCGGCGGCUGGGCAACAUUCCGAGGGGACCGUCCCCUCGGUAAUGGCGAAUGGGACCCA [G28A C32G] | 0
GGCCGGCAUGGUCCCAGCCUCCUCGCUAGCGCCGGCUGGGCAACAUUCCGAGGGGACCGUCCCCUCGGUAAUGGCGACUGGGACCCA [G28A A78C] | 0.0378
GGCCGGCAUGGUCCCAGCCUCCUCGCUAGCGCCGGCUGGGCAACAUUCCGAGGGGACCGUCCCCUCGGUAAUGGCGAGUGGGACCCA [G28A A78G] | 0.185
GGCCGGCAUGGUCCCAGCCUCCUCGCUAGCGCCGGCUGGGCAACAUUCCGAGGGGACCGUCCCCUCGGUAAUGGCGAUUGGGACCCA [G28A A78U] | 0.0308
GGCCGGCAUGGUCCCAGCCUCCUCGCUAGCGCCGGCUGGGCAAUAUUCCGAGGGGACCGUCCCCUCGGUAAUGGCGAAUGGGACCCA [G28A C44U] | 0.215
GGCCGGCAUGGUCCCAGCCUCCUCGCUAGCGCAGGCUGGGCAACAUUCCGAGGGGACCGUCCCCUCGGUAAUGGCGAAUGGGACCCA [G28A C33A] | 0.107
GGCCGGCAUGGUCCCAGCCUCCUCGCUAGCGCCGGCUGGGAAACAUUCCGAGGGGACCGUCCCCUCGGUAAUGGCGAAUGGGACCCA [G28A C41A] | 0.13
GGCCGGCAUGGUCCCAGCCUCCUCGCUAGCGCCGGCUGGGUAACAUUCCGAGGGGACCGUCCCCUCGGUAAUGGCGAAUGGGACCCA [G28A C41U] | 0.0875
GGCCGGCAUGGUCCCAGCCUCCUCGCUAGCGCCGGGUGGGCAACAUUCCGAGGGGACCGUCCCCUCGGUAAUGGCGAAUGGGACCCA [G28A C36G] | 0.0519
GGCCGGCAUGGUCCCAGCCUCCUCGCUAGCGCCGGCUGGGCAACAUUCCGAGGGGACCGUCCCCUCGGUAAUGGCGAAUGGGACCCC [G28A A87C] | 0.0676
GGCCGGCAUGGUCCCAGCCUCCUCGCUAGCGCCGGCUGGGCAACAUUCCGAGGGGACCGUUCCCUCGGUAAUGGCGAAUGGGACCCA [G28A C61U] | 0.0631
